In patent US20240400614A1, “CLEAVABLE PEPTIDES AND METHODS OF USE THEREOF” (Bright Peak Therapeutics AG, priority 2023, published 2024):
Square brackets hold non-standard residues; d marks the D form. Ends that are not written are not given here. Tyr(3-NO2) = N[C@@H](Cc1ccc(O)c([N+](=O)[O-])c1)C(=O)O; Nle = CCCC[C@H](N)C(=O)O; 2Abz = Nc1ccccc1C(=O)O

What was measured:
Format in all cases: biochemical
MMP-9 = molecular target: T1, MMP-9 (Homo sapiens, UniProt P14780); experiment: FRET peptide cleavage efficiency with MMP-9 (standard pH 7.5; also pH 6.5)
T1 construct: purchased SIGMA PF024

uPA = uPA (Homo sapiens, UniProt P00749); experiment: FRET peptide cleavage efficiency with uPA
MMP-7 = molecular target: T2, MMP-7 (Homo sapiens, UniProt P09237); experiment: FRET peptide cleavage efficiency with MMP-7 (standard pH 7.5; also pH 6.5)
T2 construct: purchased SIGMA CC1059
T2 sequence (P09237 95-267): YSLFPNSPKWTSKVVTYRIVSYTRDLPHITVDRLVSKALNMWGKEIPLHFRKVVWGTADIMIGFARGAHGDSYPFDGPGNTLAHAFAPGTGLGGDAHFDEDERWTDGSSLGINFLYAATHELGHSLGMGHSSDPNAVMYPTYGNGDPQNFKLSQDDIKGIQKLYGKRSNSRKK

matriptase = molecular target: T3, matriptase (Homo sapiens, UniProt Q9Y5Y6); experiment: FRET peptide cleavage efficiency with matriptase
T3 construct: purchased R&D Systems 3946-SEB
T3 sequence (Q9Y5Y6 615-855 limits assumed): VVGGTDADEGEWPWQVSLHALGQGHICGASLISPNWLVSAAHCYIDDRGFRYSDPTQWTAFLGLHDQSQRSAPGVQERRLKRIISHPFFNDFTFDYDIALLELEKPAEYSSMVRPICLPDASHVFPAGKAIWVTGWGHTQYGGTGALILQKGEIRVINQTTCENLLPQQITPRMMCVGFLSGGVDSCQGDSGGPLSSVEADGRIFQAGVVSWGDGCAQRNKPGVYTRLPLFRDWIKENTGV

MMP-2 = molecular target: T4, MMP-2 (Homo sapiens, UniProt P08253); experiment: FRET peptide cleavage efficiency with MMP-2
T4 construct: purchased SIGMA PF023
T4 sequence (P08253 110-660): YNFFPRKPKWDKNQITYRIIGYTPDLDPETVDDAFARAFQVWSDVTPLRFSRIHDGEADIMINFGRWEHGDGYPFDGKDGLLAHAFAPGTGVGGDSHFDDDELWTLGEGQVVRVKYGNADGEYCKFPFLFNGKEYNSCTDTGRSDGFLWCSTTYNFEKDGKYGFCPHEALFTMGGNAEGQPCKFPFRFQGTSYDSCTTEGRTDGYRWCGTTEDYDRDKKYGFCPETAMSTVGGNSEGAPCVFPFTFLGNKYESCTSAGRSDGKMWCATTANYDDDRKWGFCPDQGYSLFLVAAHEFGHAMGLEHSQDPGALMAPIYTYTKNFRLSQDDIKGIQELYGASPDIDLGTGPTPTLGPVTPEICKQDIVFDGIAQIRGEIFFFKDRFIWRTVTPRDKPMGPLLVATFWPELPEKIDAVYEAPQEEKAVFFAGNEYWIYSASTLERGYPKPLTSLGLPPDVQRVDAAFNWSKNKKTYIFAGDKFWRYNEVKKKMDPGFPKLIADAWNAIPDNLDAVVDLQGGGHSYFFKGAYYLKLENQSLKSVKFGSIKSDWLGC

[1] = 200 uM linker, 1 ug/ml protease, 37° C., buffer A pH 8.5
[2] = t = 60 min, 200 uM linker, 1 ug/ml protease, 37° C., buffer A pH 8.5
[3] = t = 120 min, 200 uM linker, 1 ug/ml protease, 37° C., buffer A pH 8.5
[4] = t = 15 min, 200 uM linker, 1 ug/ml protease, 37° C., buffer B pH 9.0
[5] = t = 60 min, 200 uM linker, 1 ug/ml protease, 37° C., buffer B pH 9.0
[6] = 200 uM linker, 1 ug/ml protease, 37° C., buffer B pH 9.0
[7] = t = 15 min, 200 uM linker, 1 ug/ml protease, 37° C., buffer C pH 7.5
[8] = t = 60 min, 200 uM linker, 1 ug/ml protease, 37° C., buffer C pH 7.5
[9] = t = 120 min, 200 uM linker, 1 ug/ml protease, 37° C., buffer C pH 7.5
[10] = t = 15 min, standard conditions (Table 8)
[11] = t = 60 min, standard conditions (Table 8)
[12] = t = 120 min, standard conditions (Table 8)

T1 sequence (P14780 94-707): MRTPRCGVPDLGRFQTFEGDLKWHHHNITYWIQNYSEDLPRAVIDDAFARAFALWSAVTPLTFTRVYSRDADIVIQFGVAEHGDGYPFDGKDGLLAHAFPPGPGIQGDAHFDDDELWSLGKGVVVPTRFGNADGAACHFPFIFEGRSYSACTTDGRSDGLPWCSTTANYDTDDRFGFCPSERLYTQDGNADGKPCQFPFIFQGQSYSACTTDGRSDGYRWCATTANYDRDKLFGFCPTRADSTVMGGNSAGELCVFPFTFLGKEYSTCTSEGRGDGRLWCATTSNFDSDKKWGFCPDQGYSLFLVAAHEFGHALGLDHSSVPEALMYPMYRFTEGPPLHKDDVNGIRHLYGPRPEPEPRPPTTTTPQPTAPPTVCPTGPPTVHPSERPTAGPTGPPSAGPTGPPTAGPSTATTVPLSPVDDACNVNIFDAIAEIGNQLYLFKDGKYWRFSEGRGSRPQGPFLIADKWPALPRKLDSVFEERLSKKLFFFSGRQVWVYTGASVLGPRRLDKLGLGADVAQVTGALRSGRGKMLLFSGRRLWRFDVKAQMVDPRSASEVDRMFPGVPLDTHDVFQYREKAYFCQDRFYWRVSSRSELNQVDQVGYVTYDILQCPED

Row | % cleavage MMP-9 t = 15 min (MMP-9; t = 15 min (Table 9)) [%] | % cleavage MMP-9 t = 60 min (MMP-9; t = 60 min (Table 9)) [%] | % cleavage MMP-9 t = 120 min (MMP-9; t = 120 min (Table 9)) [%] | % cleavage uPA t = 15 min (uPA; [1]) [%] | % cleavage uPA t = 60 min (uPA; [2]) [%] | % cleavage uPA t = 120 min (uPA; [3]) [%] | % cleavage MMP-7 t = 15 min (MMP-7; t = 15 min (Table 9)) [%] | % cleavage MMP-7 t = 60 min (MMP-7; t = 60 min (Table 9)) [%] | % cleavage MMP-7 t = 120 min (MMP-7; t = 120 min (Table 9)) [%] | % cleavage Matriptase t = 15 min (matriptase; [4]) [%] | % cleavage Matriptase t = 60 min (matriptase; [5]) [%] | % cleavage Matriptase t = 120 min (matriptase; [6]) [%] | % cleavage MMP-2 t = 15 min (MMP-2; t = 15 min (Table 9)) [%] | % cleavage MMP-2 t = 15 min (MMP-2; [7]) [%] | % cleavage MMP-2 t = 60 min (MMP-2; t = 60 min (Table 9)) [%] | % cleavage MMP-2 t = 60 min (MMP-2; [8]) [%] | % cleavage MMP-2 t = 120 min (MMP-2; t = 120 min (Table 9)) [%] | % cleavage MMP-2 t = 120 min (MMP-2; [9]) [%] | % cleavage MMP-9 t = 15 min (MMP-9; [10]) [%] | % cleavage MMP-9 t = 60 min (MMP-9; [11]) [%] | other results | Substance
1 | 43 | 94 | 100 | 1 | 6 | 12 | 62 | 96 | 100 | 29 | 81 | 96 | 89 | 90 | 97 | 99 | 100 | 99 | – | – | % cleavage uPA t = 60 min (uPA; pH 6.5, t = 60 min (Table 7)): 0%; % cleavage uPA t = 120 min (uPA; pH 6.5, t = 120 min (Table 7)): 0%; % cleavage uPA t = 60 min (uPA; pH 7.5, t = 60 min (Table 7)): 7%; % cleavage uPA t = 120 min (uPA; pH 7.5, t = 120 min (Table 7)): 13%; % cleavage Matriptase t = 15 min (matriptase; pH 6.5, t = 15 min (Table 7)): 5%; % cleavage Matriptase t = 60 min (matriptase; pH 6.5, t = 60 min (Table 7)): 26%; % cleavage Matriptase t = 15 min (matriptase; pH 7.5, t = 15 min (Table 7)): 25%; % cleavage Matriptase t = 60 min (matriptase; pH 7.5, t = 60 min (Table 7)): 68%; % cleavage MMP-2 t = 15 min (MMP-2; pH 6.5, t = 15 min (Table 7)): 93%; % cleavage MMP-2 t = 60 min (MMP-2; pH 6.5, t = 60 min (Table 7)): 100%; % cleavage MMP-2 t = 15 min (MMP-2; pH 7.5, t = 15 min (Table 7)): 37%; % cleavage MMP-2 t = 60 min (MMP-2; pH 7.5, t = 60 min (Table 7)): 100% | SGRVANLVG (not fully specified (N-terminus, C-terminus)) [LNK017]
2 | 1 | 3 | 4 | 1 | 5 | 12 | 0 | 0 | 0 | 3 | 11 | 20 | 2 | 2 | 5 | 5 | 8 | 8 | – | – | – | SGRVANPLGGSG ([2Abz]SGRVANPLGGSG[Tyr(3-NO2)]-NH2) [LNK053]
3 | 49 | 100 | 100 | 33 | 100 | 100 | 0 | 0 | 0 | 0 | 0 | 0 | 78 | 78 | 100 | 100 | 100 | 100 | – | – | – | SGRVANYFGKL ([2Abz]SGRVANYFGKL[Tyr(3-NO2)]-NH2) [LNK054]
4 | 23 | 74 | 92 | – | – | – | 77 | 100 | 100 | – | – | – | 19 | – | 64 | – | 88 | – | 23 | 74 | % cleavage MMP-9 t = 120 min (MMP-9; [12]): 92%; % vcleavage uPA t = 15 min (uPA; standard conditions (Table 8)): 1%; % cleavage uPA t = 60 min (uPA; [11]): 4%; % cleavage uPA t = 120 min (uPA; [12]): 7%; % cleavage MMP-7 t = 15 min (MMP-7; [10]): 77%; % cleavage MMP-7 t = 60 min (MMP-7; [11]): 100%; % cleavage MMP-7 t = 120 min (MMP-7; [12]): 100%; % cleavage Matriptase t = 15 min (matriptase; [10]): 19%; % cleavage Matriptase t = 60 min (matriptase; [11]): 65%; % cleavage Matriptase t = 120 min (matriptase; standard conditions (Table 8)): 91%; % cleavage MMP-2 t = 60 min (MMP-2; [11]): 64%; % cleavage MMP-2 t = 120 min (MMP-2; [12]): 88% | SGRVAPQPLVD (not fully specified (N-terminus, C-terminus)) [LNK046]
5 | 32 | 93 | 100 | – | – | – | 61 | 100 | 100 | – | – | – | 34 | – | 78 | – | 91 | – | 32 | 93 | % cleavage MMP-9 t = 120 min (MMP-9; [12]): 100%; % vcleavage uPA t = 15 min (uPA; standard conditions (Table 8)): 0%; % cleavage uPA t = 60 min (uPA; [11]): 0%; % cleavage uPA t = 120 min (uPA; [12]): 0%; % cleavage MMP-7 t = 15 min (MMP-7; [10]): 61%; % cleavage MMP-7 t = 60 min (MMP-7; [11]): 100%; % cleavage MMP-7 t = 120 min (MMP-7; [12]): 100%; % cleavage Matriptase t = 15 min (matriptase; [10]): 24%; % cleavage Matriptase t = 60 min (matriptase; [11]): 73%; % cleavage Matriptase t = 120 min (matriptase; standard conditions (Table 8)): 100%; % cleavage MMP-2 t = 60 min (MMP-2; [11]): 78%; % cleavage MMP-2 t = 120 min (MMP-2; [12]): 91% | SGRVAPY-Nle-LQG ([2Abz]SGRVAPY[Nle]LQG[Tyr(3-NO2)]-NH2) [LNK043]
6 | 55 | 100 | 100 | – | – | – | 59 | 100 | 100 | – | – | – | 49 | – | 91 | – | 100 | – | 55 | 100 | % cleavage MMP-9 t = 120 min (MMP-9; [12]): 100%; % vcleavage uPA t = 15 min (uPA; standard conditions (Table 8)): 2%; % cleavage uPA t = 60 min (uPA; [11]): 6%; % cleavage uPA t = 120 min (uPA; [12]): 13%; % cleavage MMP-7 t = 15 min (MMP-7; [10]): 59%; % cleavage MMP-7 t = 60 min (MMP-7; [11]): 100%; % cleavage MMP-7 t = 120 min (MMP-7; [12]): 100%; % cleavage Matriptase t = 15 min (matriptase; [10]): 28%; % cleavage Matriptase t = 60 min (matriptase; [11]): 80%; % cleavage Matriptase t = 120 min (matriptase; standard conditions (Table 8)): 100%; % cleavage MMP-2 t = 60 min (MMP-2; [11]): 91%; % cleavage MMP-2 t = 120 min (MMP-2; [12]): 100% | SGRVAPYMLQG ([2Abz]SGRVAPYMLQG[Tyr(3-NO2)]-NH2) [LNK042]
